Measured values from patent US20260027209A1.

Molecular target: human Claudin-6 (human) (UniProt P56747)
Test: flow cytometry on Dubca.huCLDN6.Luc cells against Dubca cells

UniProt P56747, sequence (P56747 whole entry): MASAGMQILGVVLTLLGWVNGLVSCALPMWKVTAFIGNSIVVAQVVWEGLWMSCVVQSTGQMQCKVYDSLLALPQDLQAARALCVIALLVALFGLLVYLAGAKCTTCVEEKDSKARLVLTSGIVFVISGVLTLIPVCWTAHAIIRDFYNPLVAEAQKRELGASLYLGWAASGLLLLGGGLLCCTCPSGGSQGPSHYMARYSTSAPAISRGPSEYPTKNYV

MFI fold over untransduced Dubca cells: 203 fold
Substance: human CLDN6 AlexaFluor 700-conjugated antibody (R&D, Cat. No. FAB3656N)
